Experimental data as given in paper PMC2938955 (Biochemistry, 2010).

Experiments:
[1] = target: p150^Glued CAP-gly domain (residues 19-107) G59A (UniProt Q14203-1 19-107, G59A); experiment: SEC
[2] = target: p150^Glued CAP-gly domain, wildtype (residues 19-107) (UniProt Q14203-1 19-107); experiment: SEC
p150^Glued CAP-gly domain, wildtype (residues 19-107), sequence (Q14203 19-107): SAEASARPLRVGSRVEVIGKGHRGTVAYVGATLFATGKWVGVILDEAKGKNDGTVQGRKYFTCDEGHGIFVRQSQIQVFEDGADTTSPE

p150^Glued CAP-gly domain (residues 19-107) G59A, sequence (Q14203 19-107 G59A): as the sequence (Q14203 19-107) above, with G41A counted along it

- binding result [1]: binds
- binding result [2]: binds
B1: EB1 fragment (residues 194 to 268) (domain or fragment, UniProt Q15691 194-268, looked up)
chain: AELMQQVNVLKLTVEDLEKERDFYFGKLRNIELICQENEGENDPVLQRIVDILYATDEGFVIPDEGGPQEEQEEY
